The values that follow come from paper PMC9586334 (Proceedings of the National Academy of Sciences of the …, 2022).

In the assay the target is T1, FhuA, outer membrane TonB-dependent transporter of E. coli (mature part, His10-TEV construct) (E. coli, UniProt P06971 34-747).
T1 construct: FhuA of E. coli, the mature part, amplified from E. coli genomic DNA; No TEV cleavage is told for the SEC and cryo-EM samples; also called wild-type FhuA; free FhuA; source: E. coli Bl21 (DE3) Δcyo, alone or co-overexpressed with Llp, purified (IMAC, SEC, in detergent)
T1 sequence (looked up): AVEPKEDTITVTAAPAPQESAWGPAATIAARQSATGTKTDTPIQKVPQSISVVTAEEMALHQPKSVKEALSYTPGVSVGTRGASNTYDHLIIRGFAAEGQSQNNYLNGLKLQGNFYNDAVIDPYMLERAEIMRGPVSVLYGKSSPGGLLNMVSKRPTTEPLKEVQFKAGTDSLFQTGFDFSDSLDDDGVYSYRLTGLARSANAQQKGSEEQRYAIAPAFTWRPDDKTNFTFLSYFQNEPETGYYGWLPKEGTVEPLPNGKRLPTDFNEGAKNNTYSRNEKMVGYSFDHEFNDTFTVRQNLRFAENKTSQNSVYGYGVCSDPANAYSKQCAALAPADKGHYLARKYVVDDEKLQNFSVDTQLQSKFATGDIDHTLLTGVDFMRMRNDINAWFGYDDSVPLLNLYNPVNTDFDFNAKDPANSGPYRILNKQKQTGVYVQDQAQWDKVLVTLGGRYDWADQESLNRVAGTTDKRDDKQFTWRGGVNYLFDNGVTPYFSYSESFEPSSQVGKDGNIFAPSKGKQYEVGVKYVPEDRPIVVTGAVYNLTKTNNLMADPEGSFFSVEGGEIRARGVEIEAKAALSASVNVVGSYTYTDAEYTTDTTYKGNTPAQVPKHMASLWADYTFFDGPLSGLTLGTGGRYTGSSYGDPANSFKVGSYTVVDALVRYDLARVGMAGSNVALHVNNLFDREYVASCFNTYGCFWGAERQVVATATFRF
The assay is described as follows: SEC; complex assembled in vivo by co-overexpression in E. coli, purified by IMAC and then gel filtration (Superdex-200, 10 mM Hepes, 100 mM NaCl, 0.05% LDAO, pH 7.5); fractions on SDS-PAGE. Particulars: partners not purified.

Positions of bridges follow the written chain, without caps; N, C: chain ends. lipid anchor = not defined here

B1: Llp, superinfection exclusion lipoprotein of bacteriophage T5 (natural protein, UniProt Q38162 16-77, looked up)
chain: C(lipid anchor)STFGPKDIKCEAYYMQDHVKYKANVFDRKGDMFLVSPIMAYGSFWAPVSYFTEGNTCEGVF
modifications: disulfide 11-58; reading uncertain
notes: Llp of bacteriophage T5, codon-optimized synthetic gene in the arabinose-inducible vector pB22; Lipoprotein; also called lytic conversion protein; SE lipoprotein; source: E. coli Bl21 (DE3) Δcyo, alone or co-overexpressed with FhuA, purified from membranes (IMAC, SEC, in detergent)
Consider B1, for which the binding result is listed as “binds”.
